Experimental data as given in article PMC7949130, “Defective binding of SPINK1 variants is an uncommon mechanism for impaired trypsin inhibition in chronic pancreatitis” (The Journal of Biological Chemistry, 2021).
Where a chain is given by its changes, count along the chain named. Names and notes keep the numbering of the source. One block for each binder: values may come before it.

Key:
Details in all cases: both partners purified
[1] = target: T1, native sulfated human anionic trypsin purified from pancreatic juice (human, UniProt P07478 24-247, sulfated on Tyr154); assay: equilibrium binding assay; equilibrium dissociation constant of ecotin on human trypsins, 15 h of incubation; further conditions not told for ecotin
T1 construct: human anionic trypsin, the active enzyme cut from anionic trypsinogen by enteropeptidase; also called Hu2-SO4 (native); Hu2-SO4

[2] = target: T2, nonsulfated human anionic trypsin purified from E. coli (human, UniProt P07478 24-247); assay: as above
T2 construct: human anionic trypsin, the active enzyme cut from anionic trypsinogen (Hu2) by enteropeptidase; Not sulfated on Tyr154; also called Hu2 (E. coli); Hu2

[3] = target: T3, nonsulfated human anionic trypsin purified from the conditioned medium of transfected HEK 293T cells (human, UniProt P07478 24-247); assay: equilibrium binding assay (free trypsin activity on a fluorogenic substrate); fixed trypsin incubated with increasing SPINK1, 0.2 ml, 0.1 M Tris-HCl (pH 8.0), 150 mM NaCl, 1 mM CaCl2, 0.05% Tween 20, 15 h; free trypsin measured with Z-Gly-Pro-Arg-AMC; apparent KD, global fit of at least three experiments
T3 construct: human anionic trypsin, the active enzyme cut from anionic trypsinogen (Hu2) by enteropeptidase; Sulfation prevented by sodium chlorate; also called Hu2 (HEK 293T); source: HEK 293T, transfected, grown with 50 mM sodium chlorate

[4] = target: T4, sulfated human anionic trypsin purified from the conditioned medium of transfected HEK 293T cells (human, UniProt P07478 24-247, sulfated on Tyr154); assay: as above
T4 construct: human anionic trypsin, the active enzyme cut from anionic trypsinogen (Hu2) by enteropeptidase; also called Hu2-SO4 (HEK 293T); source: HEK 293T, cotransfected with tyrosylprotein sulfotransferase 2

[5] = target: T1, native sulfated human anionic trypsin …; assay: as above
[6] = target: T2, nonsulfated human anionic trypsin …; assay: as above
[7] = target: T1, native sulfated human anionic trypsin …; assay: dissociation rate assay (recovery of trypsin activity after dilution of the complex); complex of 11 nM SPINK1 and 10 nM trypsin formed for 1 h at 23 °C, diluted to 50-200 pM with 0.6 mM Z-Gly-Pro-Arg-AMC, 0.1 M Tris-HCl (pH 8.0), 150 mM NaCl, 1 mM CaCl2, 0.05% Tween 20, room temperature, followed for 1 h
[8] = target: T2, nonsulfated human anionic trypsin …; assay: as above
[9] = target: T1, native sulfated human anionic trypsin …; assay: discontinuous association rate assay (residual trypsin activity); 50 pM trypsin mixed with 500 pM SPINK1, 0.1 M Tris-HCl (pH 8.0), 150 mM NaCl, 1 mM CaCl2, 0.05% Tween 20, 23 °C; kon from the pseudo-first-order rate constant divided by the inhibitor concentration
[10] = target: T2, nonsulfated human anionic trypsin …; assay: as above
[11] = target: T1, native sulfated human anionic trypsin …; assay: KD calculated from the rate constants (association and dissociation rate assays); KD(calc): equilibrium dissociation constant calculated from kon and koff of the activity-based rate assays
[12] = target: T2, nonsulfated human anionic trypsin …; assay: as above
[13] = target: T1, native sulfated human anionic trypsin …; assay: equilibrium binding assay (free trypsin activity on a fluorogenic substrate); fixed trypsin incubated with increasing SPINK1, 0.2 ml, 0.1 M Tris-HCl (pH 8.0), 150 mM NaCl, 1 mM CaCl2, 0.05% Tween 20, 15 h; free trypsin measured with Z-Gly-Pro-Arg-AMC; apparent KD, global fit of at least three experiments; remark: listed apart in the source
[14] = target: T1, native sulfated human anionic trypsin …; assay: equilibrium binding assay (free trypsin activity on a fluorogenic substrate); as the equilibrium assay but K41N SPINK1 incubated with trypsin for 1 h; 0.1 M Tris-HCl (pH 8.0), 150 mM NaCl, 1 mM CaCl2, 0.05% Tween 20; apparent KD

T2 sequence (P07478 24-247): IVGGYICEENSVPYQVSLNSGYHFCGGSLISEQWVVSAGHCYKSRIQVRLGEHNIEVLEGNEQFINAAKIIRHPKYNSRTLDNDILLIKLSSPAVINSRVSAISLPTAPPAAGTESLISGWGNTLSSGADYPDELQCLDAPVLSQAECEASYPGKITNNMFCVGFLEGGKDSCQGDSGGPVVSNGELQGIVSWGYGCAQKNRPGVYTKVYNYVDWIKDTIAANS
T1 sequence (P07478 24-247): as above
T4 sequence (P07478 24-247): as above
T3 sequence (P07478 24-247): as above

Kd [1]: 0.0195 nM
Kd [2]: 0.0032 nM
B1: ecotin (natural protein)
chain: not shown
notes: source: E. coli BL21(DE3), overexpressed, purified from the periplasm

Kd [3]: 0.0005 nM
Kd [4]: 0.009 nM
Kd [5]: 0.0367 nM
Kd [6]: 0.0003 nM
koff [7]: 1.81e-05 s⁻¹
koff [8]: 5e-07 s⁻¹
kon [9]: 2.4e+06 M⁻¹ s⁻¹
kon [10]: 3.8e+06 M⁻¹ s⁻¹
Kd [11]: 0.0075 nM
Kd [12]: 0.0001 nM
B2: serine protease inhibitor Kazal type 1 (SPINK1), wildtype, C-terminal 10His tag (natural protein, human, UniProt P00995 24-79, looked up)
chain: DSLGREAKCYNELNGCTKIYDPVCGTDGNTYPNECVLCFENRKRQTSILIQKSGPC
notes: expressed from the SPINK1-minigene-1 construct with its own signal peptide; Residue numbers start at the initiator methionine; source: HEK 293T, transfected, purified from conditioned medium (nickel-nitrilotriacetic acid cartridge); not shown: 10His, C-terminal, kept

Kd [13]: 0.123 nM
B3: SPINK1 variant P55S, C-terminal 10His tag (natural protein, human, UniProt P00995 24-79, looked up)
chain: B2 chain with P32S
notes: also called SPINK1 P55S; p.P55S; source: HEK 293T, transfected, purified from conditioned medium (nickel-nitrilotriacetic acid cartridge); not shown: 10His, C-terminal, kept

Kd [13]: 0.258 nM
B4: SPINK1 variant I42M, C-terminal 10His tag (natural protein, human, UniProt P00995 24-79, looked up)
chain: B2 chain with I19M
notes: also called SPINK1 I42M; p.I42M; source: HEK 293T, transfected, purified from conditioned medium (nickel-nitrilotriacetic acid cartridge); not shown: 10His, C-terminal, kept

Kd [13]: 0.006 nM
B5: SPINK1 variant R65Q, C-terminal 10His tag (natural protein, human, UniProt P00995 24-79, looked up)
chain: B2 chain with R42Q
notes: also called SPINK1 R65Q; p.R65Q; source: HEK 293T, transfected, purified from conditioned medium (nickel-nitrilotriacetic acid cartridge); not shown: 10His, C-terminal, kept

Kd [13]: 0.0214 nM
B6: SPINK1 variant N37S, C-terminal 10His tag (natural protein, human, UniProt P00995 24-79, looked up)
chain: B2 chain with N14S
notes: also called SPINK1 N37S; p.N37S; source: HEK 293T, transfected, purified from conditioned medium (nickel-nitrilotriacetic acid cartridge); not shown: 10His, C-terminal, kept

Kd [13]: 0.027 nM
B7: SPINK1 variant Q68R, C-terminal 10His tag (natural protein, human, UniProt P00995 24-79, looked up)
chain: B2 chain with Q45R
notes: also called SPINK1 Q68R; p.Q68R; source: HEK 293T, transfected, purified from conditioned medium (nickel-nitrilotriacetic acid cartridge); not shown: 10His, C-terminal, kept

Kd [3]: 0.0008 nM
Kd [4]: 0.0063 nM
Kd [5]: 0.0167 nM
Kd [6]: 0.0004 nM
koff [7]: 1.36e-05 s⁻¹
koff [8]: 4e-07 s⁻¹
kon [9]: 3.1e+06 M⁻¹ s⁻¹
kon [10]: 5.1e+06 M⁻¹ s⁻¹
Kd [11]: 0.0044 nM
Kd [12]: 0.0001 nM
B8: SPINK1 variant N34S, C-terminal 10His tag (natural protein, human, UniProt P00995 24-79, looked up)
chain: B2 chain with N11S
notes: also called SPINK1 N34S; p.N34S; source: HEK 293T, transfected, purified from conditioned medium (nickel-nitrilotriacetic acid cartridge); not shown: 10His, C-terminal, kept

Kd [14]: 1150 nM
B9: SPINK1 variant K41N, C-terminal 10His tag (natural protein, human, UniProt P00995 24-79, looked up)
chain: B2 chain with K18N
notes: Its concentration was determined by SDS-PAGE and densitometry, not by active site titration; also called SPINK1 K41N; p.K41N; source: HEK 293T, transfected, purified from conditioned medium (nickel-nitrilotriacetic acid cartridge); not shown: 10His, C-terminal, kept
